Data reported in patent US11591580B2, “K85 mutation-containing plant EPSPS mutant, and encoding gene and application thereof” (GEVOTO LLC, priority 2017, dated 2023).
Positions count from the first letter of the chain named.

B1: R0: wild-type rice EPSPS represented by SEQ ID NO: 2; control group of Example 5 (protein, listed as Oryza sativa)
chain: MASNAAAAAAKAEEIVLQPIREISGAVQLPGSKSLSNRILLLSALSEGTTVVDNLLNSEDVHYMLEALKALGLSVEADKVAKRAVVVGCGGKFPVEKDAKEEVQLFLGNAGTAMRPLTAAVTAAGGNATYVLDGVPRMRERPIGDLVVGLKQLGADVDCFLGTECPPVRVKGIGGLPGGKVKLSGSISSQYLSALLMAAPLALGDVEIEIIDKLISIPYVEMTLRLMERFGVKAEHSDSWDRFYIKGGQKYKSPGNAYVEGDASSASYFLAGAAITGGTVTVQGCGTTSLQGDVKFAEVLEMMGAKVTWTDTSVTVTGPPREPYGKKHLKAVDVNMNKMPDVAMTLAVVALFADGPTAIRDVASWRVKETERMVAIRTELTKLGASVEEGPDYCIITPPEKLNITAIDTYDDHRMAMAFSLAACADVPVTIRDPGCTRKTFPNYFDVLSTFVRN
B2: R1: rice EPSPS mutant I, SEQ ID NO: 4, containing one mutation K100(85)I (protein)
chain: B1 chain with K100I
modifications: Oryza sativa EPSPS mutant with mutation K100(85)I
B3: G0: wild-type soybean EPSPS represented by SEQ ID NO: 18; control group of Example 7 (protein)
chain: MAAAEKPSTAPEIVLEPIKDISGTITLPGSKSLSNRILLLAALSEGTTVVDNLLYSEDIHYMLGALRTLGLRVEDDQTTKQAIVEGCGGLFPTIKESKDEINLFLGNAGTAMRPLTAAVVAAGGNASYVLDGVPRMRERPIGDLVAGLKQLGADVDCFLGTNCPPVRVNGKGGLPGGKVKLSGSVSSQYLTALLMAAPLALGDVEIEIVDKLISVPYVEMTLKLMERFGVSVEHSGDWDKFLVHGGQKYKSPGNAFVEGDASSASYFLAGAAVTGGTITVNGCGTSSLQGDVKFAEVLEKMGAKVTWSENSVTVTGPPQDSSGQKVLQGIDVNMNKMPDVAMTLAVVALFANGQTTIRDVASWRVKETERMIAICTELRKLGATVEEGPDYCVITPPEKLNVTAIDTYDDHRMAMAFSLAACGDVPVTIKDPGCTRKTFPDYFEVLERFTRH
modifications: Glycine max

Key:
[1] = test system: transgenic rice seedlings; assay: glyphosate resistance of the EPSPS mutant in transgenic rice plants sprayed with glyphosate (Example 8, Table 1); type: in vivo, rice (Nipponbare); conditions: for glyphosate resistance of transformed rice seedlings (in words): glyphosate sprayed at the 1× dosage
Description: A method for detecting the glyphosate resistance of the G1 soybean EPSPS mutant (SEQ ID NO: 20), G2 soybean EPSPS mutant (SEQ ID NO: 22) and G3 soybean EPSPS mutant (SEQ ID NO: 24) provided in Example 7, the R1 rice EPSPS mutant (SEQ ID NO: 4) provided in Example 5, and the Z1 maize EPSPS mutant (SEQ ID NO: 12) provided in Example 6 in the transgenic rice is as follows:
The plasmids (containing the EPSPS mutant gene) of the monoclonal resistant bacteria of pADV5-EPSPS in Examples 1-7 were extracted by a conventional method, followed by double enzyme digestion by Pac1 and BstEII, the small fragments were collected, and then the small fragments were ligated, using T4 DNA ligase, to the pGVP1 vectors that had undergone the same double enzyme digestion, to obtain a pGVP1-EPSPS vector having a structure as shown in FIG. 8.
In the present example, the glyphosate resistance of the EPSPS mutant in transgenic rice plants were verified. An experiment method is as follows:
The transgenic rice seedlings transplanted were uniformly arranged in a same experiment area (preventing leaves from overlapping). The areas occupied by the experiment groups and the control group were calculated, and according to the areas, glyphosate was sprayed at a 1× dosage of 1060 g/hectare (0.106 g/m^2). 2× dosage was 2120 g/hectare, 5× dosage was 5300 g/hectare, and 20× dosage was 21200 g/hectare.
Commercially available Roundup® 41% ammonium glyphosate was used. Roundup® ammonium glyphosate with corresponding volumes was taken according to the above sprayed concentrations, then diluted with 20 times of volume of water, and then uniformly sprayed on the plants in the experiment groups and the control group. After leaf surfaces were dry, the plants were moved into greenhouse or outdoor to cultivate.
After the glyphosate was sprayed at the 1× dosage, growth states of the plants in each group were observed and recorded on a 10th day, and glyphosate was sprayed to the survived plants at the 2× dosage. The growth states of the plants in each group were observed and recorded 10 days later, and glyphosate was sprayed to the survived plants at the 5× dosage. The growth states of the plants in each group were observed and recorded 10 days later, and glyphosate was sprayed to the survived plants at the 20× dosage. The growth states of the plants in each group were observed and recorded 10 days later, and results are shown in Table 1, wherein corresponding numbers of plants denoted by −, +, ++ and +++ are listed, and “%++&+++” is percentage of plant having medium and high glyphosate resistance to the total number of plants observed.

[2] = test system: EPSPS defective E. coli (E. coli DH5α with EPSPS gene and C-P Lyase gene being knocked out, EDCE); assay: growth of E. coli transformed by genes encoding rice EPSPS (wild type and mutants) in culture media containing different glyphosate concentrations (Example 5, FIG. 1); type: cell-based; conditions: for EPSPS enzyme activity: concluded from growth of EPSPS defective E. coli at 0 mM glyphosate; for growth of transformed E. coli: culture media containing 1 mM glyphosate
Description: E. coli transformed by the gene (SEQ ID NO: 3) encoding the rice EPSPS mutant I provided in Example 1 was taken as Experiment Group 1 (only containing a mutation K100(85)I).
E. coli transformed by the gene (with a nucleotide sequence represented by SEQ ID NO: 5, and an amino acid sequence of the encoded rice EPSPS mutant is represented by SEQ ID NO: 6) encoding the rice EPSPS mutant that contains only mutations G111(96)A and P116(101)S but no mutation K100(85)I was taken as Experiment Group 2.
E. coli transformed by the gene (SEQ ID NO: 7) encoding the rice EPSPS mutant II provided in Example 2 was taken as Experiment Group 3 (the encoded rice EPSPS mutant II contained three mutations: K100(85)I, G111(96)A and P116(101)S).
E. coli transformed by the gene (SEQ ID NO: 1, which encoded the wild-type rice EPSPS represented by SEQ ID NO: 2) encoding the wild-type rice EPSPS was taken as a control group.
The glyphosate resistance of the gene encoding the rice EPSPS mutant I and the rice EPSPS mutant I encoded thereby in E. coli, and the glyphosate resistance of the gene encoding the rice EPSPS mutant II and the rice EPSPS mutant II encoded thereby in E. coli were verified by detecting the growth situation of the transformed E. coli in culture media (culture media obtained by adding a certain concentration of antibiotics Spec (Spectinomycin), Gen (Gentamycin), Amp (Ampicillin) and glyphosate of different concentrations, with M9 as a basal culture medium) containing different glyphosate concentrations (0 mM, 1 mM, 10 mM, and 50 mM).
In the above, the E. coli used was double knockout E. coli, namely, EPSPS defective E. coli (E. coli DH5α with EPSPS gene and C-P Lyase gene being knocked out, named as EDCE, wherein for a preparation method thereof, reference can be made to a Chinese invention patent with the filing number CN2016103256926).
The detection method is a method commonly known in the art, and is briefly described as follows: synthesizing the gene encoding the rice EPSPS mutant by using a chemical synthesis method, introducing enzyme sites (Pac1 and Sbf1) at two ends thereof, connecting to an expression vector (for example, a pADV5 vector, the structure of which is shown in FIG. 4) that had undergone the same restriction enzyme digestion treatment under the action of ligase after restriction enzyme digestion, then transforming double knockout E. coli, picking positive colonies after verification, inoculating the positive colonies to a culture medium containing glyphosate for growth, and observing the growth situation.
Results are as shown in FIG. 1 (wherein R0 is a control group, R1 is Experiment Group 1, R2 is Experiment Group 2, and R3 is Experiment Group 3).

double knockout E. coli = assay: growth of E. coli transformed by genes encoding soybean EPSPS (wild type and mutants) in culture media containing different glyphosate concentrations (Example 7, FIG. 3); type: cell-based; conditions: culture media containing 1 mM glyphosate
[3] = 1X dosage (1060 g/hectare glyphosate), recorded on 10th day
[4] = 2X dosage (2120 g/hectare) sprayed to plants surviving 1X, recorded 10 days later
[5] = 5X dosage (5300 g/hectare) sprayed to plants surviving 2X, recorded 10 days later
[6] = 20X dosage (21200 g/hectare) sprayed to plants surviving 5X, recorded 10 days later

Row | Molecule | % ++&+++ (percentage of plant having medium and high glyphosate resistance to the total number of plants observed) [1, 3] [%] | number of plants with resistance + (low glyphosate resistance) [1, 3] | number of plants with resistance ++ (medium glyphosate resistance) [1, 3] | number of plants with resistance +++ (high glyphosate resistance) [1, 3] | number of plants with resistance − (no glyphosate resistance) [1, 3] | % ++&+++ (percentage of plant having medium and high glyphosate resistance to the total number of plants observed) [1, 4] [%] | number of plants with resistance + (low glyphosate resistance) [1, 4] | number of plants with resistance ++ (medium glyphosate resistance) [1, 4] | number of plants with resistance +++ (high glyphosate resistance) [1, 4] | number of plants with resistance − (no glyphosate resistance) [1, 4] | % ++&+++ (percentage of plant having medium and high glyphosate resistance to the total number of plants observed) [1, 5] [%] | number of plants with resistance + (low glyphosate resistance) [1, 5] | number of plants with resistance ++ (medium glyphosate resistance) [1, 5] | number of plants with resistance +++ (high glyphosate resistance) [1, 5] | number of plants with resistance − (no glyphosate resistance) [1, 5] | % ++&+++ (percentage of plant having medium and high glyphosate resistance to the total number of plants observed) [1, 6] [%] | number of plants with resistance + (low glyphosate resistance) [1, 6] | number of plants with resistance ++ (medium glyphosate resistance) [1, 6] | number of plants with resistance +++ (high glyphosate resistance) [1, 6] | number of plants with resistance − (no glyphosate resistance) [1, 6] | other results
1 | B1 | 0.0 | 1 | 0 | 0 | 30 | 0.0 | 0 | 0 | 0 | 31 | 0.0 | 0 | 0 | 0 | 31 | 0.0 | 0 | 0 | 0 | 31 | glyphosate resistance of transformed rice seedlings (in words) [1]: had no resistance, one was seriously damaged, and all the others died; EPSPS enzyme activity [2]: normal EPSPS enzyme activity; growth of transformed E. coli [2]: grew slowly
2 | B2 | 88.9 | 0 | 0 | 16 | 2 | 27.8 | 5 | 4 | 1 | 8 | 11.1 | 3 | 2 | 0 | 13 | 0.0 | 2 | 0 | 0 | 16 | glyphosate resistance of transformed rice seedlings (in words) [1]: obviously superior to that of the rice seedlings transformed by R0; EPSPS enzyme activity [2]: normal EPSPS enzyme activity; growth of transformed E. coli [2]: obviously grew better than the control group (R0)
3 | B3 | 0.0 | 0 | 0 | 0 | 36 | 0.0 | 0 | 0 | 0 | 36 | 0.0 | 0 | 0 | 0 | 36 | 0.0 | 0 | 0 | 0 | 36 | glyphosate resistance of transformed rice seedlings (in words) [1]: had no resistance and died; growth of transformed E. coli (double knockout E. coli): substantially could not grow
